Source: patent US20230390320A1 (RZNOMICS, published 2023)

Assays:
human PD1 (hPD1) = molecular target: T1, human PD1 (hPD1) (human, UniProt Q15116 25-288, limits assumed); experiment: ELISA; lysate of hPD1-expressing cells coated on plate, scFv from stable 293A culture medium
T1 construct: Stood in the ELISA as a lysate of cells expressing hPD1

mouse PD1 (mPD1) = molecular target: T2, mouse PD1 (mPD1) (mouse, UniProt Q02242 25-288, limits assumed); experiment: ELISA; lysate of mPD1-expressing cells coated on plate, scFv from stable 293A culture medium
T2 construct: Stood in the ELISA as a lysate of cells expressing mPD1
T2 sequence (looked up): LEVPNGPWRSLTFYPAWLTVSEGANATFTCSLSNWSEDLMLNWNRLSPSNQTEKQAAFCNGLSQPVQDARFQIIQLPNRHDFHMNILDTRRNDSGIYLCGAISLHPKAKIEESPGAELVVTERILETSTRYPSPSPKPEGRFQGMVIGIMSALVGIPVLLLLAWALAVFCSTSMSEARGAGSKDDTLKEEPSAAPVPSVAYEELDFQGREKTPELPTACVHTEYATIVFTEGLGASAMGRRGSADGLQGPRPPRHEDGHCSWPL

T1 sequence (Q15116 25-288 limits assumed): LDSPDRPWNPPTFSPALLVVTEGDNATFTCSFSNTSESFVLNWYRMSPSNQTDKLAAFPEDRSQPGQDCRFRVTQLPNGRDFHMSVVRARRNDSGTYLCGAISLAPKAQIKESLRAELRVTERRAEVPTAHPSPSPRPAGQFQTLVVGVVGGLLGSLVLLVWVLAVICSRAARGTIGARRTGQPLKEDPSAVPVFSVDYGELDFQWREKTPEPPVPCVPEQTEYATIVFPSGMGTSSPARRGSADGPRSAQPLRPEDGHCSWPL

- binding result (human PD1 (hPD1)): binds
- binding result (mouse PD1 (mPD1)): binds
B1: scFvPD1(I) (scFv, not shown: small tags and cut ends)
scFv: QVQLVQSGAEVKKPGASVKVSCKASGYTFTAQYMHWVRQAPGQGLEWMGIINPSGGETGYAQKFQGRVTMTRDTSTSTVYMELSSLRSEDTAVYYCAKEGVADGYGLVDVWGQGTMVTVSSGGGGSGGGGSGGGGSGGGGSEIVLTQSPATLSLSPGERATLSCRASQSVSSYLAWYQQKPGQAPRLLIYDASKRATGIPARFSGSGSGTDFTLTISSLEPEDFAVYYCDQRNNWPLTFGGGTKVEIK
notes: also called single chain variable fragment PD1; PD1scFv
